# Laboratory results reported in patent publication US11407819B2, “Compositions and use of a fibrinogen binding motif present in EFB and COA for therapeutics and vaccines against Staphylococcus aureus” (priority 2013, dated 2022).
# Target: T1, rEfb-O binding to Fg (Homo sapiens, UniProt P02671+P02675+P02679)
# T1 construct: full-length human Fibrinogen (diluted in PBS, Enzyme research); purchased Enzyme research; host or cells: Efb probe made in E. coli
# T1 sequence (P02671 20-629 limits assumed): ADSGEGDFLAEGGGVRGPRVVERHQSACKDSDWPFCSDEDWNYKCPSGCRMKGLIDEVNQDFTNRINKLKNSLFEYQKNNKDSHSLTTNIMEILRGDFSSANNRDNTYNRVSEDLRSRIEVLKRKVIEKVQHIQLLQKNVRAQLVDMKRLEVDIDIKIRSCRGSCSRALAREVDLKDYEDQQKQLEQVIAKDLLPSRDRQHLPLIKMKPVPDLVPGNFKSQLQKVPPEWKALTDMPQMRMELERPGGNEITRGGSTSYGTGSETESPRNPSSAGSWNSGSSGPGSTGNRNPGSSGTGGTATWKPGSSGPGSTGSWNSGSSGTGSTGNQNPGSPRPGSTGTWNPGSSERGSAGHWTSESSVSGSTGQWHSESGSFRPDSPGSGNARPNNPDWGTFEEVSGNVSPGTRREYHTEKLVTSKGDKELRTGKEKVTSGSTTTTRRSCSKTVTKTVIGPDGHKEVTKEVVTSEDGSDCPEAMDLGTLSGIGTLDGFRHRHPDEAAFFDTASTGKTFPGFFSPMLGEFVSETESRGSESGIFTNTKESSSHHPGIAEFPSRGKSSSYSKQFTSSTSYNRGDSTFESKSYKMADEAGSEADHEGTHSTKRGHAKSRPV
# T1 sequence (P02675 31-491): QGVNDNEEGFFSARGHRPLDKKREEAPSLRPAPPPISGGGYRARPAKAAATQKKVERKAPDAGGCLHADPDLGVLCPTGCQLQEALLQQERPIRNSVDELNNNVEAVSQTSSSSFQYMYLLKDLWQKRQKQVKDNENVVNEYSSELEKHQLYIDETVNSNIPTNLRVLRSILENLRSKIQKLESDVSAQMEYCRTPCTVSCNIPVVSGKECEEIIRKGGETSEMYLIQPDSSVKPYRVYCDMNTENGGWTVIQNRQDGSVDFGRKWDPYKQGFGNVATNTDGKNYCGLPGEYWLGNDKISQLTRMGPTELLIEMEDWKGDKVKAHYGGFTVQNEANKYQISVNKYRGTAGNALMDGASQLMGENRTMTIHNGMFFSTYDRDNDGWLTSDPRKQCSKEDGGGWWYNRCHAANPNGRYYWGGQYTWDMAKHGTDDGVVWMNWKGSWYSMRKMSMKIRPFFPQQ
# T1 sequence (P02679 27-453): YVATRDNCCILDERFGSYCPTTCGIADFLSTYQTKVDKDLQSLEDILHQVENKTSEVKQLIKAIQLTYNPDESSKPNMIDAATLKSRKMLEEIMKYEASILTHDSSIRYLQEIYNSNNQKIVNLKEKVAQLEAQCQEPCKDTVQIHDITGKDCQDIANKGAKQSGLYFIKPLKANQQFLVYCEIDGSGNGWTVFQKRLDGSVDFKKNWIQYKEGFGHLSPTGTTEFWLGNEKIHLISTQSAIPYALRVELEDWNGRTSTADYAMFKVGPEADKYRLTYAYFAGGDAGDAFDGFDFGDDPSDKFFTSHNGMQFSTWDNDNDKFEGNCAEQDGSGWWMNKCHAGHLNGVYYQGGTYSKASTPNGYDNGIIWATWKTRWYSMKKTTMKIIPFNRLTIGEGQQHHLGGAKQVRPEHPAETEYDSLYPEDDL
# Assay: Competition ELISA, peptide inhibition of rEfb-O binding to immobilized Fg
# Settings: rEfb-O 5 nM; peptides 2 μM or increasing concentrations
# Method: FIG. 10A is a table of the Efb-O variant peptides were synthesized where each residue in the sequence is individually replaced with Ala (or Ser when the native a.a. is Ala). FIG. 10B is a plot of the Efb-O variant peptides inhibit rEfb-O (5 nM) binding to immobilized Fg in solid phase assay. Wells were coated with 0.25 μg/well Fg. Peptides (2 μM) were mixed with rEfb-O proteins (5 nM) and incubated in the Fg wells for 1 hour. FIG. 10C is a plot showing selected peptides inhibit rEfb-O binding to immobilized Fg. Increasing concentrations of Efb peptides were incubated with 5 nM rEfb-O in Fg-coated microtiter wells. To identify the residues in Efb-O that are important for Fg binding an Alanine scanning approach was used. A panel of Efb-O variant peptides were synthesized where each residue in the sequence is individually replaced with Ala (or Ser when the native a.a. is Ala; FIG. 10A). The individual peptides are then examined for their ability to compete with the binding of rEfb-O (5 nM) to immobilized Fg. […]
# In the case of peptide inhibition assay, various concentration of Efb or Coa peptides were mixed with a fixed concentration of Coa-GST or Efb-GST fusion proteins (5-10 nM) in TBS and the bound GST fusion proteins were detected through incubation with HRP-conjugated rabbit anti-GST polyclonal antibodies (5000× dilution). […]
substance,measurement,value
sEfb-O: synthetic peptide mimicking the high affinity Fg-binding motif in Efb (Efb 68-98) (KYIKFKHDYNILEFNDGTFEYGARPQFN),inhibition of rEfb-O binding to immobilized Fg,efficiently blocked
